± gives the uncertainty stated by the source.
B1: CD2-associated protein, residues 109 to 169; numbered along this chain, Q9Y5K6 (parent)
chain: KKRQCKVLFEYIPQNEDELELKVGDIIDINEEVEEGWWSGTLNNKLGLFPSNFVKELEVTD

Variants of: B1
Experiment: abundance fitness (aPCA) (normalised: wild type 0, dead -1); higher = more abundant; growth selection in yeast, the domain comes from the species named
Conditions: Homo sapiens

| Variant | abundance fitness |
| --- | --- |
| KKRQCKVLFEYIPQNEDELELKVGDIIDINEEVEEGWWSGILNNKLGLFPSNFVKELEVTD [T41I] | -0.246 ± 0.19 |
| KKRQCKVLFEYIPQNEDELELKVGDIIDINEEVEEGWWSGFLNNKLGLFPSNFVKELEVTD [T41F] | -0.274 ± 0.2 |
| KKRQCKVLFEYIPQNEDELELKVGDIIDINEEVEEGWWSGYLNNKLGLFPSNFVKELEVTD [T41Y] | -0.065 ± 0.16 |
| KKRQCKVLFEYIPQNEDELELKVGDIIDINEEVEEGWWSGTLNNKLGLFPSNFVKESEVTD [L57S] | -0.601 ± 0.14 |
| KKRQCKVLFEYIPQNEDELELKVGDIIDINEEVEEGWWSGTINNKLGLFPSNFVKELEVTD [L42I] | -0.242 ± 0.23 |
| KKRQCKVLFEYIPQNEDELELKVGDIIDINEEVEEGWWSGTPNNKLGLFPSNFVKELEVTD [L42P] | -0.732 ± 0.41 |
| KKWQCKVLFEYIPQNEDELELKVGDIIDINEEVEEGWWSGTLNNKLGLFPSNFVKELEVTD [R3W] | -0.372 ± 0.26 |
| KKRQCKVLFEYIPQNEDELELKVGDIIDINEEVEEGWWSGTLNNKLGLFPWNFVKELEVTD [S51W] | -0.093 ± 0.11 |
| TKRQCKVLFEYIPQNEDELELKVGDIIDINEEVEEGWWSGTLNNKLGLFPSNFVKELEVTD [K1T] | 0.113 ± 0.27 |
| KKRQCKVLFEYIPQNEDELELKVGDIIDINEEVEEGWWSGTLNNKLGLFPSNFVHELEVTD [K55H] | -0.035 ± 0.22 |
| KKRQCKVLFEYIPQNEDELELKVGDIIDINEEVEEGWWSGTLNNKLGLFPSNFVCELEVTD [K55C] | -0.142 ± 0.11 |
| KKRQCKVLFEYIPQNEDELELKVGDIIDINEEVEEGWWSGTLNNKLGLFPSHFVKELEVTD [N52H] | -0.348 ± 0.21 |
| KKRQCKVLFEYIPQNEDELELKVGDIIDINEEVEEGWWSGTLNNKLGLFPSAFVKELEVTD [N52A] | -0.067 ± 0.092 |
| KKRQCVVLFEYIPQNEDELELKVGDIIDINEEVEEGWWSGTLNNKLGLFPSNFVKELEVTD [K6V] | 0.278 ± 0.041 |
| KKRQCRVLFEYIPQNEDELELKVGDIIDINEEVEEGWWSGTLNNKLGLFPSNFVKELEVTD [K6R] | 0.122 ± 0.054 |
| KKRQCKVLFEYIPQNEDELEQKVGDIIDINEEVEEGWWSGTLNNKLGLFPSNFVKELEVTD [L21Q] | -0.893 ± 0.42 |
| KKRQCKVLFEYIPQNEDEMELKVGDIIDINEEVEEGWWSGTLNNKLGLFPSNFVKELEVTD [L19M] | -0.319 ± 0.29 |
| KKRQCKVLFEYIPQNEDELELKVGDIIDINEEVEEGWWSGTLENKLGLFPSNFVKELEVTD [N43E] | -0.333 ± 0.27 |
| KKRQCKVLFEYIPQNEDELELKVGDIIDINEEMEEGWWSGTLNNKLGLFPSNFVKELEVTD [V33M] | 0.085 ± 0.27 |
| KKRQCKVLFEYIPQNEDELELKVGDIIDINEEYEEGWWSGTLNNKLGLFPSNFVKELEVTD [V33Y] | -0.349 ± 0.4 |
| KKRQCKVLFEYIPQNEDELELQVGDIIDINEEVEEGWWSGTLNNKLGLFPSNFVKELEVTD [K22Q] | -0.406 ± 0.19 |
| KKRQCKVLFEYIPQNEDELELKVGDIIDINEEVEEGHWSGTLNNKLGLFPSNFVKELEVTD [W37H] | -0.656 ± 0.31 |

| Variant | abundance fitness |
| --- | --- |
| KKRQCKVLFEYIPQNEDELELKVGDIIDINEEVEEGWWSGTLNNKLGLFPSNFVKELEVTC [D61C] | -0.561 ± 0.23 |
| KKRQCKVLFEYIPQNEDELELKVGDIIDINEEVEEGWWSGTLNNKCGLFPSNFVKELEVTD [L46C] | 0.127 ± 0.058 |
| KKRQCKVLFEYIPQNEDELELKVGDIIDINEEVEEGWWSGTLNNKWGLFPSNFVKELEVTD [L46W] | 0.013 ± 0.079 |
| KKRQCKVLFEYIPQNEDELELKVGDIIDINEEVEEGWWSGTLNNKVGLFPSNFVKELEVTD [L46V] | 0.047 ± 0.071 |
| KKRQCKVMFEYIPQNEDELELKVGDIIDINEEVEEGWWSGTLNNKLGLFPSNFVKELEVTD [L8M] | 0.33 ± 0.22 |
| KKRQCKVLFEYIPQNEDELELKVGDIIDINKEVEEGWWSGTLNNKLGLFPSNFVKELEVTD [E31K] | 0.109 ± 0.12 |
| KKRQCKVLFEYIPQNEDELELKVGDIIDINTEVEEGWWSGTLNNKLGLFPSNFVKELEVTD [E31T] | -0.087 ± 0.12 |
| KKRQCKVLFEYIPQNEDELELKVGDIIDINEEVEEGWWSGTLNNKLGLFPSNFTKELEVTD [V54T] | -0.222 ± 0.15 |
| KKRQCKVLFEYIPQNEDELELKVGDIIDINEEVEEGWWSGTLNNKLGLFPSNFNKELEVTD [V54N] | -0.84 ± 0.44 |
| KKRQCKVLFEYIPQNEDELELKVGDIIDINEEVEEGWWSGTLNNKLGLFPSNFWKELEVTD [V54W] | -0.903 ± 0.24 |
| KKRQCKVLFEYIPQNEDELELKVGDIIDINEEVEEQWWSGTLNNKLGLFPSNFVKELEVTD [G36Q] | -0.457 ± 0.26 |
| KKRQCKVLFEYIPQNEDELELKVGDIIDINEEVEEPWWSGTLNNKLGLFPSNFVKELEVTD [G36P] | -0.939 ± 0.25 |
| KKRQCKVLFEYIPQNEDELELKVGDIIDINEEVEEWWWSGTLNNKLGLFPSNFVKELEVTD [G36W] | -0.59 ± 0.21 |
| KKRQCKVLFEYIPQNEDELRLKVGDIIDINEEVEEGWWSGTLNNKLGLFPSNFVKELEVTD [E20R] | -0.125 ± 0.17 |
| KKRQCKVLFEYIWQNEDELELKVGDIIDINEEVEEGWWSGTLNNKLGLFPSNFVKELEVTD [P13W] | -0.881 ± 0.29 |
| KKRQCKVLFEYVPQNEDELELKVGDIIDINEEVEEGWWSGTLNNKLGLFPSNFVKELEVTD [I12V] | -0.218 ± 0.18 |
| KKRQCKVLFEYDPQNEDELELKVGDIIDINEEVEEGWWSGTLNNKLGLFPSNFVKELEVTD [I12D] | -0.303 ± 0.23 |
| KKRQCKVLFEYIPQNEAELELKVGDIIDINEEVEEGWWSGTLNNKLGLFPSNFVKELEVTD [D17A] | -0.142 ± 0.1 |
| KKRQCKVLFEYIPQNEFELELKVGDIIDINEEVEEGWWSGTLNNKLGLFPSNFVKELEVTD [D17F] | -0.249 ± 0.47 |
| KKRQCKVLFEYIPQNEDELELKVGDIIDINEEVEEGWWSGTLNNKLGLFPSNEVKELEVTD [F53E] | -0.894 ± 0.45 |
| KKRQCKVLFEYIPQNEDELELKVGDIIDINEEVEEGWWSGTLNNKLGLFPSNPVKELEVTD [F53P] | -0.525 ± 0.2 |
| KKRQCKVLFEYIPQNEDELELKVGDIIDINEEVEEGWWSGTLNNKLGLFPSNFVKELEVED [T60E] | 0.019 ± 0.13 |

From the Human Domainome abundance scans (Beltran et al. 2025)
